The values that follow come from the DeepSol protein solubility set.

This data set in a line: soluble on expression in E. coli; label from the status in PepcDB or PDB records.
For “MGSDKIHHHHHHMNTLANWKKFLLVAVIICFLVPIMTKAEIAEADTSSELIVSEAKNLLGYQYKYGGETPKEGFDPSGLIQYVFSKADIHLPRSVNDQYKIGTAVKPENLKPGDILFFKKEGSTGTVPTHDALYIGDGQMVHSTQSKGVIITNYKKSSYWSGTYIGARRIAADPATADVPVVQEAEKYIGVPYVFGGSTPSEGFDCSGLVQYVFQQALGIYLPRSAEQQWAVGEKVAPQNIKPGDVVYFSNTYKTGISHAGIYAGAGRFIQASRSEKVTISYLSEDYWKSKMTGIRRFDNLTIPKENPIVSEATLYVGEVPYKQGGVTPETGFDTAGFVQYVYQKAAGISLPRYATSQYNAGTKIEKADLKPGDIVFFQSTSLNPSIYIGNGQVVHVTLSNGVTITNMNTSTYWKDKYAGSIRVQ”, the “soluble on expression in E. coli” value is reported as “not soluble”. Then “IGKLKLSARGTFTFTRNKILEYDELPQKYGYQAVTGTRVSENTLYIADRLYTEDDFIVSTNANGLKTYKLRSELPRPTLGGLIGPGDIKYVDVNGDGVIDSYDQVRGVGNPSTPEIIYGFGLNAEYKGFYASIFFQGAGNTSVLLGGATSEGWYPFSWGVDQSNYRTFALDRWTENNPSQDVIIPRLHKNNANNANNRVASTWWLRNGSFLRLKNIEFGYQLPKKFMDKIGFEAARIYIMGYNLAVWDDIKYFDPEAGNANAGLNYPLPRTFTLGLDFTF”, with “not soluble”. Then “MSLDLFIPEVAYINPQALKHPLGNEAYQYLKSMGVPIIESNRVSIDTDSPVKNYVKAKKTILLTVSKQKKLQQCKPSADYQFALSSSCPGHCEYCYLQTTQGEKPYMRLFVNIEEILENIQEYMDGNKPNITTFEAASITDPVGLDHITRALEKCITYFGESSHGRLRLVTKFDHVDPYLKLPHNGHTTFRFTINTQWVIKNFEHHTSSAHERVEGAKKIAHANYPLGFIIAPIMLYDHWEKDYKDLLEELSLALKDYEKPIGFEMIQHRFTSKAKDLILQRFPNTKLNLDEESRKLKWGPYGQFKYVYPTEKSDYMRDYLTGLIKDLFPNGRIEYFTEGHHHHHH”, with “not soluble”; and “LDPEEIRKRLEHTERQFRNRRKILIRGLPGDVTNQEVHDLLSDYELKYCFVDKYKGTAFVTLLNGEQAEAAINAFHQSRLRERELSVQLQPTDALLCVANLPPSLTQQQFEELVRPFGSLERCFLVYSERTGQSKGYGFAEYMKKDSAARAKSDLLGKPLGPRTLYVHWTDAGQLTPALLHSRCLCVDRLPPGFNDVDALCRALSAVHSPTFCQLACGQDGQLKGFAVLEYETAEMAEEAQQQADGLSLGGSHLRVSFCAPGPPGRSMLAALIAAQATALNRG”, with “soluble”.

For “MSHSEAGQAASVRRVLAVIPARGGSKGVPAKNLLPVGGVPLVARAVRECRATRLVTDVVVSTDDHAIAAAAREAGAEVVLRPAAIAGDTATSEAAVLHAMDTHEALHGAAVDVVLLVQCTSPFIVREDVDGVVHAIVGKGADTALTVAPFHGFVWRDADDAPGALGAERAAVEGGTDTLVTGTATSGGYGINHDKSFRPRRQDRPQDLLETGAVYGMDATGFREARHRFFGRTELVRTDPARVLEIDDPHDLARARALAPLFDANRPGALPTAEDIDAVVLDFDGTQTDDRVLIDSDGREFVSVHRGDGLGIAALRKSGLTMLILSTEQNPVVAARARKLKIPVLHGIDRKDLALKQWCEEQGIAPERVLYVGNDVNDLPCFALVGWPVAVASAHDVVRGAARAVTTVPGGDGAIREIASWILGPSLDSLDKLEHHHHHH”, the “soluble on expression in E. coli” value is on record as “not soluble”.

Take “GPGSMTTSASLFKKFTLENVAQIASSSHKEQKEVREELAEQYPALEAYWEEILPKKSDIFIIRCQGQVHCITLVSSQPEVLFFNHHGGPYLPHLKLLHKYPFMLTRHQVDIGGCRYVISGANVMCQGLTSAGGIVADGTEEGEVVAVYVEGKEHAVAVGTMLMSSDEIKEKNKGPCIENIHHLGDGLWMNPVLSASHISV”: the “soluble on expression in E. coli” value was “soluble”. Then “MSTGSVDSQQSGGTLDAASKNIDHVIDQARHRHHQHRSKFKEAIDYLDQIFEDLKKECDPDDKNNNDENNKPFDPPPTFVAVKKKPTPLATSSASTTAPAAKIASASDSKKPASSSSTISVKPTVRQKTSETSKSKPLQQAPPSPVEVVIPVRKLSQGATNNQAEPTVAETIVLAKKTDKMDFTRRWLQDDLKSLAHLPPANIAPNASYYQDFDEHSLGSCSAEVAAFNTTKEKKNGSKASRKVSDSSDMIRPRPFRPQPVYPMVDGFNGPSAFEPFSSHTLPRVASNDQIPSEMKRSGSQDPYNTLRSMRSEGDGFDSARPSPSAFQQVSPFHRGSSMRSSLRSLPDHSPVRQKNSSYEVAAKDPVLSIDQLVAELELNTENTFSPADKRRSFPTSFGRPQAHQAQQHHAPSDYEKPNRFRAETRHAPTRGRAQNFVAPVAEPMTSKAPIYSQAVRPKQQQQQKSLDEVTSMLNRAVSQFGNEQRQAYQHPTAYKQLSQQSFGSVHSNNAFETINQEKINPSRVEAMHNMFERGTAPTSWKMQQKDSYEDRSQKMSPLQEVTYASLNSYSPPPPPPSHPLPQNGSHGMARNTSQNQISYHEYTPQPPTTQPPQRPPGSANSSQGGYYSSNSSGIGSNYPQNQQNQMYNNPRRSLIIDQQSISSRMPSVENDDDDGFYDNIGIYNDDRRYSRGSELETSASFRQLPPASNTSKHNRIGSFLRKIGGGSSRPPGSAASLMSLNKIANETIIKPGGLMKSNSLSNEPWKKVMLNGGASMPREANNNHKTGLGARLKNSLFGSRKRLDG”, with “not soluble”; and “GHMAESQALSDDIGFLLSRVGGMVLGAVNKALVPTGLRVRSYSVLVLACEQAEGVNQRGVAATMGLDPSQIVGLVDELEERGLVVRTLDPSDRRNKLIAATEEGRRLRDDAKARVDAAHGRYFEGIPDTVVNQMRDTLQSIAFPTFVEGS”, with “soluble”; and “HDDGLPAFRYSAELLGQLQLPSVALPLNDDLFLYGRDAEAFDLEAYLALNAPALRDKSEYLEHWSGYYSINPKVLLTLMVMQSGPLGAPDERALAAPLGRLSAKRGFDAQVRDVLQQLSRRYYGFEEYQLRQAAARKAVGEDGLNAASAALLGLLREGAKVSAVQGGNPLGAYAQTFQRLFGTPAAELLQPSNRVARQLQAKAALAPPSNLMQLPWRQGYSWQPNGAHSNTGSGYPYSSFDASYDWPRWGSATYSVVAAHAGTVRVLSRCQVRVTHPSGWATNYYHMDQIQVSNGQQVSADTKLGVYAGNINTALCEGGSSTGPHLHFSLLYNGAFVSLQGASFGPYRINVGTSNYDNDCRRYYFYNQSAGTTHCAFR”, with “not soluble”. Take “MGSDKIHHHHHHMHAWESIQITLDLIEANLSEEISINELANKANLSPFYYQRLFKRLVNKTVMEYIKLRRLARASEYLAEHKNRILDVALNFGFASHETFTRSFKKAYGLTPEKYRANPVKLNHFIKPELILNYAMVDEGVPLIADDIVIEVNRKTLSNPRTFVGIEIEVPICQLVGGETTGIAIVEELWMKLGSQRHNIPNQIPGGNEFAALYMGNAKEGNCMYMAGVEVESGTSVEGYSTFELPVKEYLVCGFEAENFNELVNSAVFKADKFMERWMKKHNLTTTDFAIEMYYPTTPEAAYLEHWIVPVPIEQ”: the “soluble on expression in E. coli” value is “not soluble”.

Consider “MGSDKIHHHHHHMSKRLMPSTTALQCFEAAARHLSFTRAAQELHLTQSAVSKQVAQLEDMLSHSLFQRIRRRLHLTPAGALYLTEVNKILTQIDISSRYILSYGDETEVLRIATQPTFGARWLVPRLKGFGDRYPRIHLDVRNELEPFDLVQAKADVAFFFGQGTWPGATCIELFSEEVVPVCSPQLLASHRFDSAQALTEHRLLQCVSRPEAWHEWFLGLGLHSQNSYHGPRFDTFYLCIRAAISGCGIALIPRYLVAEELSEGKLVVAWDHPVASNGRHFIAHAEHAAEVPKIRAFVQWIRERVAEGD”, for which the “soluble on expression in E. coli” value is recorded as “not soluble”.

In the case of “MFTQVKPYLSLPGFSCVLVNAGIVPPDLNQNFRVAFFNEKKSLNFYVLEKLFLNAEVKLLKPQKETEETFDFIISEIPFSHAFEEERKGLSNSIRNSLKEKGVLFIEYDSKPGSTPKEEFIRFIRLFLKKVESEQVKTDLEVILSRPSYFWARNNETRLYFLEKARRFNDDFVKREITNENYRIFSHDEVHELLKDCMLSFAGRANLEMNDPEIVLFPSHLATLARCGKNNLCKEAVIDFVLDTKQRRDIYAKFPEVDQEKAIESVADKFFLIPRQSPKNLRREVLLPGGHKLSLSEPVYDFFFVNSEEPRRLSEHPLYEKSKKTAWKAFYRVLSTGEFILCVNDDLLEDAKDELPESFELTPPNDEILKVSFENLEDTYLVSNATKGPAVHLNTLEVILLWFASEKGKTKAKEEAVKFLKSREEFIKLGTNIVKAREVKEEDINKTAEKLFKGRKAFNLNRLKIIRER”, the “soluble on expression in E. coli” value is “not soluble”. Regarding “MGSDKIHHHHHHMFSIKRVIYYQELIRVGSFTKAAKALNISQAFLSQEIARLEIETERKLINRTTRQFSLTPFGQIFADKIQGMIKEHYELEQFVSSYEESTDGALLVGVIPIFNRLAHYNMFNLFQKAYPNIDISFIDGVSTDLLERVRNGEIHLSFSTPFDEYLNDPLFHHTICQIDDIVAVMATSHPLADNKTLSLPQLVKEKLIVPQKGTGEHAAVSESFTRQGINPSYFRECSNMDIIMDLVMNLSGVVFLCSSVAKSLTAYDVAVIPLEEQLKRTFAISYLKRSVNIPMVRLFLDFLQDYSESVR”, the “soluble on expression in E. coli” value is recorded as “not soluble”. Then “SLTQIQPGVEKFIKDFNDAKKKGEHAYDMTLSYQNFDKGFFNSRFQMQMTFDNGAPDLNIKPGQKVVFDVDVEHGPLPITMLMHGNVIPALAAAKVNLVNNELTQPLFIAAKNKSPVEATLRFAFGGSFSTTLDVAPAEYGKFSFGEGQFTFNGDGSSLSNLDIEGKVEDIVLQLSPMNKVTAKSFTIDSLARLEEKKFPVGESESKFNQINIINHGEDVAQIDAFVAKTRLDRVKDKDYINVNLTYELDKLTKGNQQLGSGEWSLIAESIDPSAVRQFIIQYNIAMQKQLAAHPELANDEVALQEVNAALFKEYLPLLQKSEPTIKQPVRWKNALGELNANLDISIADPAKSSSSTNKDIKSLNFDVKLPLNVVTETAKQLNLSEGMDAEKAQKQADKQISGMMTLGQMFQLITIDNNTASLQLRYTPGKVVFNGQEMSEEEFMSRAGRFVH”, with “soluble”. For “RRYWVVLDGNFEDYLKKFSAKSRNTLLRKIKRFAELSGGEIDWREYCKPEEMHEFYKLAMEVSQKTYQERLLDCGLPSDQQFQENMLALAAEDNVRGYLLFYQKKPIAYIYCPVHDGIALYEYVGHDPEYQRWSPGTLLQYFALQRMFTASHIKIFDFTEGEGAHKAFFATNNQYCADVYYFRR”, the “soluble on expression in E. coli” value is “not soluble”.

As to “MSLSQLFKSFDASEKTQLICFPFAGGYSASFRPLHAFLQGECEMLAAEPPGHGTNQTSAIEDLEELTDLYKQELNLRPDRPFVLFGHSMGGMITFRLAQKLEREGIFPQAVIISAIQPPHIQRKKVSHLPDDQFLDHIIQLGGMPAELVENKEVMSFFLPSFRSDYRALEQFELYDLAQIQSPVHVFNGLDDKKCIRDAEGWKKWAKDITFHQFDGGHMFLLSQTEEVAERIFAILNQHPIIQPEGGSHHHHHH”, the “soluble on expression in E. coli” value was “soluble”. The value for “MIKVDHRPLYLQVIDKLKHDMEAGVYEEGEKLPSEFELSKQLGVSRATLREALRLLEEEGVVVRRHGVGTFVHTKPLFSAGIEELYSVTDMIRHADMEPGTIFLSSYQIEATDDDKRRFQTDNLDQLMMIERVRTADGVPIVYCLDKLPAELIGQHSVHEINSILDHLESGSDRMITHAVTTIEPIGFHEKVSEILECEAETGLLLLKQMHYDQYDTPVLYSYNYFRADKFTFHVVRKRVKA” was “not soluble”; that for “MQRHPTPNARNSLWRWTDAKHPLRVALNYVVIVLARISPSLHAKNWLLARIGVTVGDGVAWGLESTPDVFWPELVTVGDDAIIGYDATLLCHEFLHDEYRTGAVVVEDRAMIGAGAVVLPGVTIGADAQVAANSLVTADVPPGETVAGVPLEHHHHHH” was “not soluble”; that for “ELALWSPEVKIVELVKDCKGLGFSILDYQDPLDPTRSVIVIRSLVADGVAERSGGLLPGDRLVSVNEYCLDNTSLAEAVEILKAVPPGLVHLGIC” was “soluble”.
